The record followed here is the RNAGym collection of RNA variant scans (doi:10.7554/elife.80360).

B1: HDV Ribozyme (parent)
chain: GGCCGGCAUGGUCCCAGCCUCCUCGCUGGCGCCGGCUGGGCAACAUUCCGAGGGGACCGUCCCCUCGGUAAUGGCGAAUGGGACCCA

Variants of B1 are the subject of this series. Put plainly: self-cleavage, relative activity (ratio to wild type); higher = more cleavage; co-transcriptional.
Consider GGCCGGCAUGGUCCCAGCCUCCUCGCUGGCGCCGGCUGGGCAACAUUCCGAGGGGACCGUCCCCUCGGUAAUGGCCAAUGGGACACA [G76C C85A], for which the self-cleavage turned out to be 0.873. As to GGCCGGCCUGGUCCCAGCCUCCUCGCUGGCGCCGGCUGGGCAACAUUGCGAGGGGACCGUCCCCUCGGUAAUGGCGAAUGGGACCCA [A8C C48G], the self-cleavage amounted to 0.175.

In the case of GGCCGGCAUGGUCCCAGCCUCCUCGCUGGCGCCGGCUGGGCUACAUUCCGAGGGGACCGUCCCCUCGGUAAUGGCGAAUGGAACCCA [A42U G82A], the self-cleavage amounted to 0.157. On to GGCCGGCAUGGUCCCAGCCUCCUCGCUGGCGCCGGCUGGGCAACAUUCCGAGGGGACCGUCCCCCCGGUAAUGGCGAAUGGGACCGA [U65C C86G], for which the self-cleavage is 1.18. In the case of GGCCGGCAUGGUCCCAGCCUCCUCGCUGGCGCCGGCUGGGCAACAUUCCGAGGGGACCGGCCCCUCGGUAAUGCCGAAUGGGACCCA [U60G G74C], the self-cleavage is 0.443.

Consider AGCCAGCAUGGUCCCAGCCUCCUCGCUGGCGCCGGCUGGGCAACAUUCCGAGGGGACCGUCCCCUCGGUAAUGGCGAAUGGGACCCA [G1A G5A], for which the self-cleavage was found to be 0.0755. Regarding GGCCGGCAUGGUCCCAGCCUCCUCGCUGGCGCCGGCUGGGCAACAUUCCGAGGGGACCGUCCCCUCGGUAAUGACGAAUGGUACCCA [G74A G82U], the self-cleavage was found to be 0.125.

As to GGCUGGCAUGGUCCCAGCCUCCUCGCUGGCGCCGGCUGGGCAACAUUCCGAGGGGACCGUCCCCUCGAUAAUGGCGAAUGGGACCCA [C4U G68A], the self-cleavage was 0.604.

For the variant GGCCGGCAUGGUCCCAGCCUCCUCGCUGGCGCCGGCUGGGCAACAUUCCGAGGGGACCGUCCCCUCGGUAAUGGCGACUGGGACCAA [A78C C86A], the self-cleavage turned out to be 0.192. For GGCCGGCAUGGUCCCAGCCUCCUCGCUGGCGCCGGCUGGGCAACAUUCCGAGGAGACCGUCCCCUCGGUAAUGGCGAAUGGGACCCA [G54A] the value was 0.961.

For the variant GGCCGGCAUGGUCCCAGCUUCCUCGCUGGCGCCGGCUGGGCAACAUUCCGAGGGGACCGUCCCCUCGGUAAUGGCGAAUAGGACCCA [C19U G80A], the self-cleavage stood at 0.0573.

For GGCCGGCAUGGUCCCAGCCUCCUCGCUGGCGCCGGCUGGCCAACAUUCCGAGGGGACCGUCCUCUCGGUAAUGGCGAAUGGGACCCA [G40C C63U], the self-cleavage came to 0.409.

Regarding GGCCGGCAUGGUCCCAGCGUCCUCGCUGGCGCCGGCUGGGCAACAUUCCGAGGGGACGGUCCCCUCGGUAAUGGCGAAUGGGACCCA [C19G C58G], the self-cleavage came out at 0.0739. Turning to GGCCGGCAUGGUCCCAGCCUCCUCGCUGGCGCCGGCUGGGCAACAUUCCGAGGGGACCGUCCCCUCGGUAAUGGCGAAUGGCAUCCA [G82C C84U], the self-cleavage stood at 0.166.

As to GGCCGGCAGGGUCCCAGCCUCCUCGCUGGCGCCGCCUGGGCAACAUUCCGAGGGGACCGUCCCCUCGGUAAUGGCGAAUGGGACCCA [U9G G35C], the self-cleavage came to 0.0639. In the case of GGCCGGCAUGGUCCCAGCCCCCUCGCUGGCGCCGGCUGGGCAACAUUCCGAGGGGACCGUCCCCUCGGUAAUGGCGAAUGGGGCCCA [U20C A83G], the self-cleavage is 0.149.

On to GGCCGGCAUGGUCCAAGCCUCCUCGCUGGCGCCGGCUGGGCAACAUUCCGAGGGGACCGUCCCCUCGGAAAUGGCGAAUGGGACCCA [C15A U69A], for which the self-cleavage came out at 0.506. Turning to GGCCGGGAUGGUCCCAGCCUCCUCGCUGGCGCCGGCUGGGCAACAUUCCGAGGGGACCGUCCCCUCGGUAAUGGCGAAAGGGACCCA [C7G U79A], the self-cleavage was 0.123.

Regarding GGCCGGCAUGGUCCCAGCCUCCUCGCUGGCGCCGGCUGGGCAACAUUCCGAGGGGACCGCCCCUUCGGUAAUGGCGAAUGGGACCCA [U60C C64U], the self-cleavage was found to be 0.895.

As to GGCCGGCAUGGUCCCAGCCUCCUCGCUGACGCCGGCUGGGCAACAUUCCGAGGGGACCAUCCCCUCGGUAAUGGCGAAUGGGACCCA [G29A G59A], the self-cleavage came out at 0.179. With GGCCGGCAUGGUCCCAGCCUCCUCGCUGGCGCAGGCUGGGCAACAUUCCGAGGGGACCGUCCCCUCGGUAAUGGCGAAUGGGACCCC [C33A A87C] the figure was 0.248; with GGCCGGCAUGGUCCCAGACUCCUCGCUGGCGCCGGCUGGGCAACAUUCCGAGGGGACCGUCCCCUCGGAAAUGGCGAAUGGGACCCA [C18A U69A], 0.19. For GGCAGGCAUGGUCCCAGCCUCCUCGCUGGCGCCGGCUGGGCAACAAUCCGAGGGGACCGUCCCCUCGGUAAUGGCGAAUGGGACCCA [C4A U46A] the value was 0.151; for GGCCGGCAUGGUCCCAGCCUCCUCGCUGGAGCCGGCUGGGCAACAUUCCGAGGGGACCGUCCACUCGGUAAUGGCGAAUGGGACCCA [C30A C63A], 0.481; for GGCCGGCAUGGUCCCAGCCUCCUCGCUGGCGCCGGCUGGACAACAUUCCGAGGGGACCGUCCCCUCGGUAAUGGCGAAUGGCACCCA [G40A G82C], 0.0665.

On to GGCCGGCAUGGUCCCAGCCUCCUCGCUGGCGCCGGCUGGGUAACAUCCCGAGGGGACCGUCCCCUCGGUAAUGGCGAAUGGGACCCA [C41U U47C], for which the self-cleavage came out at 0.799. As to UGCCGGCAUGGUCCCAGCCUCCUCGCUGGCGCCGGCUGGGAAACAUUCCGAGGGGACCGUCCCCUCGGUAAUGGCGAAUGGGACCCA [G1U C41A], the self-cleavage is 0.496.

Consider GGCCGGCAUGGUCCCAGCCUCCUCGCUGGCGACGGCUGGGCAACAUUCCGAGGGGACCGUCCCCUCGGUAAUGGCGAAUGGGAUCCA [C32A C84U], for which the self-cleavage stood at 0.0536. As to CGCCGGCAUGGUCCCAGCCUCCUCGCUGGCGCCGGCUGGGCAACAUUCCGAGGGGACCGUCCCCUCGGUAAUGGCCAAUGGGACCCA [G1C G76C], the self-cleavage was determined as 0.237.

GGUCGGCAUGGUCCCAGCCUCCUCGCUGGCGCCGGCUGGCCAACAUUCCGAGGGGACCGUCCCCUCGGUAAUGGCGAAUGGGACCCA [C3U G40C]: the self-cleavage stood at 0.26. GGCCGGCAUGGUCCCAGCUUCCUCGCUGGCUCCGGCUGGGCAACAUUCCGAGGGGACCGUCCCCUCGGUAAUGGCGAAUGGGACCCA [C19U G31U]: the self-cleavage was determined as 0.115. For GGCCGGCAUGGUCCCAGCCUCCUCGCCGGCGCCGGCUGGGCAAUAUUCCGAGGGGACCGUCCCCUCGGUAAUGGCGAAUGGGACCCA [U27C C44U] the value was 0.19.
